Results published in PMC3115495 (Bioorganic & medicinal chemistry letters, 2011).

Tests used:
[1] = target: mu opioid receptor (MOR-1) (UniProt P42866); experiment: radioligand binding
KOR-1 = KOR-1 (Homo sapiens, UniProt P41145); experiment: ^125I-opioid saturation studies in KOR-1/CHO cells; type: binding; conditions: at the highest concentrations of radioligands used
Sequence of KOR-1 (P41145 whole entry, species assumed): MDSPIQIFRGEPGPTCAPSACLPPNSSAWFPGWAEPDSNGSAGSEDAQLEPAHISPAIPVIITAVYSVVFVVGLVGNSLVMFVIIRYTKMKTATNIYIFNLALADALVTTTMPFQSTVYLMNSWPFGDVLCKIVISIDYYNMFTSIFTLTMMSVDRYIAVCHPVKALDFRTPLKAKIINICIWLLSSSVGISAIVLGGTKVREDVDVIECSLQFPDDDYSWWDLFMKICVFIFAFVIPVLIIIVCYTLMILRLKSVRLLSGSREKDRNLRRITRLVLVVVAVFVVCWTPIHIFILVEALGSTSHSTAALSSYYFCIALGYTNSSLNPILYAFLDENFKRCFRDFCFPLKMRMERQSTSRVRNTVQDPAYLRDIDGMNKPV

Sequence of mu opioid receptor (MOR-1) (P42866 whole entry): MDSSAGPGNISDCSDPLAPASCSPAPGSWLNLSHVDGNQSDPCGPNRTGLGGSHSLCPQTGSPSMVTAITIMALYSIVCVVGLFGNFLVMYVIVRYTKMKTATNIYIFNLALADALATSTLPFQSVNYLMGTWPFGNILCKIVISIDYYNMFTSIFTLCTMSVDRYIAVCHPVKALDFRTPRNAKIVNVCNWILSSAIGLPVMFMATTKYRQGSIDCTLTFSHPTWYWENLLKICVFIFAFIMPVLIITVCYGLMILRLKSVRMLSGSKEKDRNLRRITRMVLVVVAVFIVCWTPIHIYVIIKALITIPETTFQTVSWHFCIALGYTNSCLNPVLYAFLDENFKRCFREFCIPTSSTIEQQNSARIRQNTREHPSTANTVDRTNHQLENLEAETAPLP

[-DAla^2,MePhe^4,Gly(ol)^5]enkephalin (peptide)
Ki [1]: 1.55 nM

CN1CC[C@]23c4c5ccc(O)c4O[C@H]2[C@H](NC(=O)c2cccc([125I])c2)CC[C@@]3(O)[C@H]1C5 [^125IBOxyA (20)]
Specific binding in KOR-1/CHO cells (KOR-1): No specific
